In the nanobody polyreactivity screen of Harvey et al. (2022):

Assay: yeast display, Sf9 membrane polyspecificity reagent, FACS + sequencing; frameworks hold sequencing errors
Method in brief: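 Galactose-induced (36–48 hours) yeast carrying a synthetic nanobody display library were exposed to 10% biotinylated, detergent-solubilized Sf9 membrane reagent at 4 °C for 1 hour. FACS followed streptavidin microbead enrichment, using low and high (top ~1%) gates for expression (anti-HA) and reagent binding (streptavidin). Colony PCR, MiSeq 2 × 250 sequencing and CDR-length filtering followed. Labels for polyreactivity reflect the gate of origin.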
For “QVQLVESGGGLVQAGGRLRISCAASGRTFYRYAMGWYRQAPGKERELVAAITYSGGSTNYADSVKGRFTISRDYAKNTVYLQMNSLKPEDTAVYYCATRYNVVRWPYYYWGQGTQVNVSS”, the “polyreactivity (PSR sort gate)” value was “high polyreactivity”. In the case of “QVQLVESGGGLVQAGGSLRLSCAASGSIFHPYTMGWYRQAPGKERELVAAISWSGGNTNYADSVNGRFTISRDNAKNTVYLQMNSLKPDDTAVYYCNKATNLSGGYDSWGQGTQVTVSS”, the “polyreactivity (PSR sort gate)” value was “low polyreactivity”. With “QVQLVESGGGLVQAGGSLRLTCAASGRTFGRYAMGWYRQAPGKEMDLVAAIRYTGGSTYADSVKGRFTISRDNAKNTVYLQMNRLKPEETAVYYCNRCGAFNTRNEITRYGYWGQGTQVTVSS” the “polyreactivity (PSR sort gate)” value was “low polyreactivity”. In the case of “QDQHVESGGGLVQAGGSLRLSCAASGIIFYAYVMGWYRQAPGKERELVAAITVSGGSTYYADSVKARFTISRDNAKNTVYLQMNSLKPEDTAVYYCAADWNFYQRTFDSWGQGTQVTVSS”, the “polyreactivity (PSR sort gate)” value was “low polyreactivity”. With “QVQLVESGGGLVQAGGSLRLSCAASGFTFRRYAKGWYRQATGKEREFVAAISIRGGRTNYADSVKGRFTISRDNAKNTVYLQMNSLKPEDTAVYYCAADGVYALDVESDYWGQGTQVTVSS” the “polyreactivity (PSR sort gate)” value was “high polyreactivity”. For “QVQLVESGGGLVQAGGSLRLSCAASGIIFPRYAMGWYRQAPGKERELVAAITIGGRTNYSDSVKGRFTISRDNAKNTVYLQMNSLKPEDTAVYYCAAQTYVPYYEYDYWGQGTQVTVSS”, the “polyreactivity (PSR sort gate)” value was “low polyreactivity”. In the case of “QVQLVESGGGLVQAGGSLRLSCAASGFILEAYAMGWYRQAPGKERELVAAITRRGTRTYYADSVKGRFTLSRDNAKNTVYLQMNSLKPEDTAVYYCNAESRSTWVAGYDYWGQGTQVTVSS”, the “polyreactivity (PSR sort gate)” value was “high polyreactivity”. For “QVQLVESGGGLVQAGGSLRLSCAASGFIFASYARGWYRQAPGKERELVAAISSSGGSTYADSVKGRFTISRDNAKNTVYLQMNSLKPEDTAVYYCAAQGYGDNRNKYYYWGQGTQVTISS”, the “polyreactivity (PSR sort gate)” value was “high polyreactivity”. In the case of “QVQHVESVGGLVQAGGSLRLSCAASGSIFFWYDMGWYRQAPGKERELVASISSGGSTYYADSVKGRFTISRDNAKNTVYLQMNSLKPEDNAVYYCNAKSWSPAKSFSFFRFDYWGQGTQVTVSS”, the “polyreactivity (PSR sort gate)” value was “low polyreactivity”. In the case of “QVQLVESGGGLVQAGGSLRLSCAASGLIFPAYAMGWYRQAPGKERELVAAISYSGGRTYYADSVKGRVTISRDNAKNTVYLQMNSLKPEDTAVYYCNTGYWYVSLGSYDYYGEYDYWGQGTQVTVSS”, the “polyreactivity (PSR sort gate)” value was “high polyreactivity”. For “QVQLVESGGGLVQAGGSLRLSCAASGRTLHDYTMGWYRQSPGKERELVAGITSGGRTNYADSVKGRFTISRDNAKNTVYLQMNSLKPEDTADYYCAAAWTWWRLYAVDYWGQGTQVTVSS”, the “polyreactivity (PSR sort gate)” value was “high polyreactivity”. In the case of “QVQLVESGGGLVQAGGSLRLSCAASGINFNKYAMGWYRQAPGKEREFVAAITYRGGSTYYADSVKGRFTISRDNAKNTVYFQMNSLKPEDTAVYYCAARRITTYYYWGQGTQVTVSS”, the “polyreactivity (PSR sort gate)” value was “high polyreactivity”. With “QVQLVESGGGLVQAGGSLRLSCAASGRIFYTYAMGWYRQAPGKERELVATISRSSSTYYADSVKGRFTISRDNAKNTVYLQMNSLKPEDTAVYYCATRSASQLLDYWGQGTQVTVSS” the “polyreactivity (PSR sort gate)” value was “low polyreactivity”. For “QVQLVESGGGLVQAGGRLRLICAASGSIFVSYALGWYRQAPGKERELVAAISTTGGRTRYADSVKGRFTISRDNAQNTVYLQMNSLKPEDTAVYYCAAVGARKMYYWGQGTQVTVSS”, the “polyreactivity (PSR sort gate)” value was “high polyreactivity”. With “QVQLVESGGGLVQAGGSLRLSCAASGFSFPYAMGGYRQAPGKERELVAGISWSGGSTYYADSVKGRFTISRDNAKNTVYLQMNSLKPEDTAVYNCNKYVQSGGTYDYWGQGTQVTVSS” the “polyreactivity (PSR sort gate)” value was “low polyreactivity”. With “QVQLVESGVGLVQAGGSLRLSCAASGFIFYSYAMGWYRQAPGKERELVAAISRSGGITYYADSVKGRFTISRDNAKNTVYLQMNSLKPEDTAVYYCAKVGRGVSSIKDMDSWGQGTQVTVSS” the “polyreactivity (PSR sort gate)” value was “high polyreactivity”. With “QVQLVESGGGLVQAGGSRLSCAASGLIFIWYTMGWYRQAPGKERELVAAIDSSGGNTYYADSVKGRFTISRDNAKNPVYLQMNSLKPAETAVYYCATDVGHGAGNLMGYWGQGTQVTVSS” the “polyreactivity (PSR sort gate)” value was “low polyreactivity”. With “QVQLVESRGGLVQAGGSLRLSCAASGRTFEYNAMGWYRQAPGKERELVATIRYSGTSTYADSVKGRFTISRDNAKNTVYLQMNSLKPEDTAVYYCAKQVRYYGYKYNYWGQGTQVTVSS” the “polyreactivity (PSR sort gate)” value was “high polyreactivity”. For “QVQLVESGRGLVQAGGSLRLSCAASGSTFRGNAMGWYRQAPGKERELVAAISVTGGSTYYADSVKVRFTISRDNAKNTVYLQMNSLKPEDTAVYYCADRVQRGQYSFVRDYYYWGQGTQVTVSS”, the “polyreactivity (PSR sort gate)” value was “high polyreactivity”. In the case of “QVQLVESGGGLVQAGGSLRLSCAASGRTFGYYTMGWYRQAPGKEREFVAAISGSGTITFYADSVKGRFTISRDNAKNTVYLQMNSLKPEDTAVYYCAADYRYGGSRGYRYDYWGQGTQVTVSS”, the “polyreactivity (PSR sort gate)” value was “low polyreactivity”. For “QVQLVESGGGLVQAGGSLRLSCAASGRIFSSYTMGWYRQAPGKERELVAAISWRGGSTYYADSVKGRFTISRDNAKNTVYLQMNSLKPEDTAVYYCAADSRSDPGDYWGQGNQVTVSS”, the “polyreactivity (PSR sort gate)” value was “low polyreactivity”. For “QVQLVESGGCLVQAGGSLRLSCAASGRTFNYKAMGWYRQAPGKERELVAAINYSGDSTYYADSVKGRFTISRDNAKNTVYLQMNSLQPEDTAVYYCNADDYWYYYRYGYWGQGTQVTVSS”, the “polyreactivity (PSR sort gate)” value was “low polyreactivity”. With “QVQLVESGGGLVQAGGSLRLSCAASGYTLVGYAMGWYRQAPGKEMELVAVISGSGGSTRYADSVKGRFTISRDNAKYTVYLQMNSLNPEDTAVYYCAARQPRTQAVYEGYYWGQGTQVTVSS” the “polyreactivity (PSR sort gate)” value was “high polyreactivity”. With “QVQLVESGGGLVQAGGSLRLSCAASGIIFSSYAMGWYRQAPGKERELVAAIDWRGDSTYYADSVKGRFTISRDNAKNTVYLQMNSLKPEDTAVYYCAADGSTYDSVRYGYWGQGTQVTVSS” the “polyreactivity (PSR sort gate)” value was “low polyreactivity”. For “QVQLVESGGGLVQAGGSLRLSCAASALTLRTYAMGWYRQAPGKERELVAAITTGGSTYYADSVKGRFTISRDNAKNTVYLQLNSLKPEDTAVYYCAADFIRYINRLLYDYWGQGTQVTVSS”, the “polyreactivity (PSR sort gate)” value was “low polyreactivity”. For “QVQLVESGGGLVQAGGSLRLSCAASGSILGIKVMGWYRQAPGKERELVAAISRRGGSTYYADSVKGRFTISRDNAKNTVYLQMNSLKPEDTAVYYCAATRTARTMGYWGQGTQVTVSS”, the “polyreactivity (PSR sort gate)” value was “high polyreactivity”. In the case of “QVQLVESGGGLDQAGGSLRLSCAAYGNTFRGYTMGWYRQAPGKEREFVAAISWSGGRTNYADSVKGRFTISRDNAKNTVYLQMNSLKPEDTAVYYCARDYRARRWGMDYWGQGTQVTVSS”, the “polyreactivity (PSR sort gate)” value was “high polyreactivity”. For “QVQLVESGGGLVQAGGSLRLSCAASGRIFRHYAMGWYRQAPGKVRELVAAIRWSGGSTYYADSVKGRFTISRDNAKNTVYLQMNSLKPADTAVYYCATRDAVGHRPSGPYQLYDYWGQGTQVTVSS”, the “polyreactivity (PSR sort gate)” value was “low polyreactivity”. For “QVQLVESGGRLVQARGSLRLICAASGLIIAYYTMGWYRQAPGKEREFVAVIDWIGVSTYYADSVKGRFTISRDNAKNTVYLQMNSLKPEDTAVYYCNADNAFPSPKSSLDYWGQGTQVTVSS”, the “polyreactivity (PSR sort gate)” value was “low polyreactivity”. For “QVQLVESGGVLVQAGGSLRLSCAASGSTFNSYVMGWYRQAPGKEREFVAAISWSGVRTYYADSVKGRFTISRDNAKNTVYLQMNSLKPEDTAVYYCAVRSGRRNYVRPAFGYWGQGTQVTVSS”, the “polyreactivity (PSR sort gate)” value was “high polyreactivity”. In the case of “QVQLVESGGGLVQAGASLRLSCAASGSTLWYYAMGWYRQAPGKERELVADITSSGNTNYADSVKGRFTISRDNAKNTVYLQMNSLKPEDTAVYYCAADSANYQWYLSWQKDDYWGQGTKVTVSS”, the “polyreactivity (PSR sort gate)” value was “low polyreactivity”. For “QVQLVESGGGLVQAGGSLRLSCAASGSIFDLYVMGWYRQAPGKERELVAAISLIGGSTSYADSVKGRFTISRDNEKNTVYLHRKSLKPEDTAVYYCAVEKFFRAEYDHWGLGTQVTVSS”, the “polyreactivity (PSR sort gate)” value was “low polyreactivity”. For “QVQLVESGGGLVQAGGSLRLSCADSGGTFFGYAMGWYRQAPGKERELVAAIRWSDGRTYYADSVKGRFTISRDNAKNTVFLQMNSLKPEDTAVYYCNADDARLFDYWGQGTQVTVSS”, the “polyreactivity (PSR sort gate)” value was “low polyreactivity”. For “QVQLVESGGGLVQAGGSLRISCAASGSTFPYYAMGWYRQAPGKERELVAAISQNGGSTYYADSVKGRFTISRDNAKNTVYLQMNSLKPEDTAGYYCNRTARKLRTVHSSVVGLDYWGQGTQVTVSS”, the “polyreactivity (PSR sort gate)” value was “low polyreactivity”. For “QVQLVESGGGLVQAGGSLRLSCAASGFIFWYYAMGWYRPAPGQERELVAAIRRGGSTNYADSVKGRFTISRDNAKNTVYLQMNSLKPEDTAVYYCAADVPRDTFDSWGQGTQVTVSS”, the “polyreactivity (PSR sort gate)” value was “low polyreactivity”. With “QVQLVESGGGLVQAGGSLRLSCAASGRTFYSYVMGWYRQSPGKERELVAAINNSGGGTYYADSVKGRFTISRDNAKNTVYLQMNSLKPEDTAVYYCNAVGGYWFDYWGQGTQVTVSS” the “polyreactivity (PSR sort gate)” value was “high polyreactivity”. In the case of “QVQLVEAGGGLVQAGGSLRLSCASSGRIFPFNAMGRYRQAPGKEREFVAAIRLSGTRKYYADSVKGRFTISRDNAKNTVYLQMNSLKPEDTAVYYCAAKYSGHYYNYDYWGQGTQVTVSS”, the “polyreactivity (PSR sort gate)” value was “high polyreactivity”. In the case of “QVQLVESGGGLVQAGGSLRLSCAASGRNFLIYAMGWYRQAPRKERELVADISTSGGTTYYADSVKGRFTISRDNAKNTVYLQMNSLKPADTAVYYCAAGSHYWKYYSWGQGTQVTVSS”, the “polyreactivity (PSR sort gate)” value was “high polyreactivity”. For “QLQLVESGGGLVQAGGSLRLICAASGLTFVHYTMGWYRQAPGKERELVAAISWNGASTYYADSVKGRFTISRDNAKNTVDIQMNSLKPEDTAVYYCAAGYAQPRYYTDYYWGEGTQVTVSS”, the “polyreactivity (PSR sort gate)” value was “high polyreactivity”. In the case of “QVQLVESGGGLVQAGGSLLLSCAASGGTFGGYTMGWYRQAPVKERELVAAITRSGSSTFYADSVKGRFTISRDNAKNTVYLQMNSLKPEDTAVYYCAALWHAVFYADYDYWGQGTQVSVSS”, the “polyreactivity (PSR sort gate)” value was “high polyreactivity”. With “QVQLVESGGGLVQAGGSLRLSCAASGSIFGHNAMGWYRQAPGKERELVAAITSTGGSTYYADSVKGRFTISRDNAKNTVYLQMNSLKPEDTAVYYCAKGWYAGYPYDYWGQGTQVTVSS” the “polyreactivity (PSR sort gate)” value was “low polyreactivity”. With “QVQLVESGGGLLQAGGSLRLSCAASGRNFTHNAMGWYRQAPRKERELVAAITSGGRTTYADSVKGRFTISRDNAKNTVYLQMNSLKPEDSAVYYCNADTGLGSLDFDKRDYWGQGTQVTVSS” the “polyreactivity (PSR sort gate)” value was “low polyreactivity”. In the case of “QVQLVESGGGLVQAGGSLRLSCAASGSIFQGYAMGWYRQAPGKERELVAGITSSGGRTRYADSVKGRFTISRDNAKNTVFLQMNSLKPEDTAVYYCAADYVRHIGYNYWGQGTQVTVSS”, the “polyreactivity (PSR sort gate)” value was “high polyreactivity”.
